Assay results taken from article PMC6300356, “DNA translocation mechanism of an XPD family helicase”.

Biological target: T1, DinG (Escherichia coli, UniProt P27296 1-716)
T1 sequence: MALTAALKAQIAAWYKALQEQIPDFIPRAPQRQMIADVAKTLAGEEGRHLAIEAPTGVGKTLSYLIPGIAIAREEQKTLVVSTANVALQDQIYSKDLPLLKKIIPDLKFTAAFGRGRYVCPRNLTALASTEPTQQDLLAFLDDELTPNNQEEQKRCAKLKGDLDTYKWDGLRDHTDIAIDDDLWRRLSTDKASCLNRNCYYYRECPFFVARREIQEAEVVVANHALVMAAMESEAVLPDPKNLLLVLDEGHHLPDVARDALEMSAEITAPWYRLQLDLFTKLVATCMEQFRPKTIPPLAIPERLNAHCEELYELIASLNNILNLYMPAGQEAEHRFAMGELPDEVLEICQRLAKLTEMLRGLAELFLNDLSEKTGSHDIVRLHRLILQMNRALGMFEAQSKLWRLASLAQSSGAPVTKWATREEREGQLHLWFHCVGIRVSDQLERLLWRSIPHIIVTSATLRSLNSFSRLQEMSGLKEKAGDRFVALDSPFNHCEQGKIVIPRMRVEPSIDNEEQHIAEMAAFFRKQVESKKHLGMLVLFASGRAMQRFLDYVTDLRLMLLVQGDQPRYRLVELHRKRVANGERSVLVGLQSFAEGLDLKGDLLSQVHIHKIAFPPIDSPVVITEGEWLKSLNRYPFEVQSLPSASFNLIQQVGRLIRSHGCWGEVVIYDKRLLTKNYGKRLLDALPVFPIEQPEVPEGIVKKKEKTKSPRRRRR
Experiment: X-ray crystallography (2.5 A); binary complex, no nucleotide; MST: 25 mM Tris pH 8.0, 200 mM NaCl, 1 mM DTT, 5% glycerol, 25 C, 10 nM ssDNA
Settings: protein: recombinant; tags: His6-MBP-TEV N-terminal, removed by TEV

B1: dT12 (12 base oligo-dT) (ssDNA)
DNA: TTTTTTTTTTTT
Q: Does B1 bind?
A: binds
